Earlier results in paper PMC6451094.

Target: TBP (Saccharomyces cerevisiae) (UniProt P13393)
Chain of UniProt P13393 (P13393 2-240): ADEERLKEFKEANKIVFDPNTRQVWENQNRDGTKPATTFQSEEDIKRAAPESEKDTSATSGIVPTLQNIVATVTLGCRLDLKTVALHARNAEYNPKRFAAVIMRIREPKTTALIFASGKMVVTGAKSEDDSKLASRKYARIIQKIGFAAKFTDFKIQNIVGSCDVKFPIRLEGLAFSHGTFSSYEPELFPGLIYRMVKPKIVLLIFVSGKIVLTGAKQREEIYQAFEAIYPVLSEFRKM

Mot1 (from UniProt P32333)
Kd: 1.5 nM
